Assay results: patent US20190100591A1 (ITEOS BELGIUM, published 2019)

Assays:
[1] = target: Polyspecificity Reagent (PSR); assay: flow cytometry, IgG presented on yeast, biotinylated PSR, normalised MFI
[2] = target: T1, human TIGIT expressed on cells (human, UniProt Q495A1 22-244); assay: flow cytometry, Jurkat-hTIGIT, MFI
T1 construct: whole, on cells; on Jurkat E6.1 cells transduced with human TIGIT, on Promega TIGIT effector cells or on human primary T cells; the cell is named under assay; also called hTIGIT; Jurkat-hTIGIT
T1 sequence (looked up): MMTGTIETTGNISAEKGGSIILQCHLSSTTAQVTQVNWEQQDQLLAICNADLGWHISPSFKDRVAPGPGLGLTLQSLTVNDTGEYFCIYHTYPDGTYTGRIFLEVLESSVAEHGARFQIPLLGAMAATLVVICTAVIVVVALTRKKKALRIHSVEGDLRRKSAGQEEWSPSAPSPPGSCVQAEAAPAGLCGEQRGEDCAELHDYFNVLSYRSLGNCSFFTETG
Procedure: Antibodies were incubated with the cells for 20 min at 4° C. in FACS buffer. […] Fluorescence intensity was analysed using LSR BD Fortessa and cell binding was recorded as the median fluorescence intensity of PE in cells expressing TIGIT at their surface.
The half-maximal concentration of binding (EC50) to Jurkat-hTIGIT was calculated using a four-variable curve-fit equation in Prism.

[3] = target: T2, recombinant human TIGIT protein (human, UniProt Q495A1 22-141, limits assumed); assay: Biacore T200 SPR, IgG captured, steady state model
T2 construct: also called hTIGIT (Creative Biomart); antigen
T2 sequence (looked up): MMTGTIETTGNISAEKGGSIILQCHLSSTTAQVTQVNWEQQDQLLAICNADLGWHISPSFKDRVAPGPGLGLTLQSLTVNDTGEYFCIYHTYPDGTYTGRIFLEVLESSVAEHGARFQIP

[4] = target: T1, human TIGIT expressed on cells; assay: FACS competition on Jurkat-hTIGIT; competitor CD155-His 15 ug/ml
[5] = target: T1, human TIGIT expressed on cells; assay: flow cytometry, CD8+ T cells from cancer patient PBMC, MFI on TIGIT+CD8+
Procedure: Cells were distributed at 1×10^5 cells per well. […] Then, cells were washed and incubated with the following antibodies and life viability dye (LVD) mix: anti-CD4-PercP-Cy5.5 (clone A161A1, BioLegend 357414); anti-CD8-BV510 (clone SK1, BD Bioscience 563919) and LVD efluor 520 (eBioscience 65-0867-14). Cells were washed and fixed and surface staining was quantified using BD LSR Fortessa. Flow cytometry data was analysed using FlowJo V10.1. TIGIT MFI on gated LVD-TIGIT+CD8+ cells was used to calculate EC50 values.

[6] = target: T1, human TIGIT expressed on cells; assay: flow cytometry, Jurkat-hTIGIT, MFI; end of the range tied to 313M32 by Table 16
[7] = target: T1, human TIGIT expressed on cells; assay: flow cytometry, human primary CD8+ T cells (healthy PBMC), MFI on TIGIT+CD8+

B1: anti-TIGIT antibody clone 26486 (antibody, V domains shown)
VH: QVQLQESGPGLVKPSETLSLTCAVSGYSISSGYYWAWIRQPPGKGLEWIGSIYHSGSTYYNPSLKSRVTISVDTSKNQFSLKLSSVTAADTAVYYCAIEGANYYDFGYVAFDIWGQGTMVTVSS
VL: EIVMTQSPATLSVSPGERATLSCRASQSVSSNLAWYQQKPGQAPRLLIYGASTRATGIPARFSGSGSGTEFTLTISSLQSEDFAVYYCQQSPPWPRTFGGGTKVEIK
With B1 the Polyspecificity Reagent (PSR) Score (0-1) [1] was 0 score (0-1).

B2: anti-TIGIT antibody clone 29499 (antibody, V domains shown)
VH: QLQLQESGPGLVKPSETLSLTCTVSGGSISSSRYYWAWIRQPPGKGLEWIGSIGTSGSTYYNPSLKSRVTISVDTSKNQFSLKLSSVTATDTAVYYCAIEGANFRDFGYVAFDIWGQGTMVTVSS
VL: EIVMTQSPATLSVSPGERATLSCRASQSVSSNLAWYQQKPGQAPRLLIYGASTRATGIPARFSGSGSGTEFTLTISSLQSEDFAVYYCQQSPPWPRTFGGGTKVEIK
With B2 the Polyspecificity Reagent (PSR) Score (0-1) [1] was 0.1 score (0-1).

B3: anti-TIGIT antibody clone 32931 (antibody, V domains shown)
VH: QLQLQESGPGLVKPSETLSLTCTVSGGSISSGSYYLAWIRQPPGKGLEWIGSIFRSGSTYYNPSLESRVTISVDTSKNQFSLKLSSVTAADTAVYYCAIEGANFKDFGYVAFDIWGQGTTVTVSS
VL: EIVMTQSPATLSVSPGERATLSCRASKSVSSNLAWYQQKPGQAPRLLIYFASTRATGIPARFSGSGSGTEFTLTISSLQSEDFAVYYCQQTSPWPRTFGGGTKVEIK
In the case of B3, the Polyspecificity Reagent (PSR) Score (0-1) [1] is reported as 0 score (0-1).

B4: anti-TIGIT antibody clone 31288 (antibody, V domains shown)
VH: QLQLQESGPGLVKPSETLSLTCTVSGGSISSGSYYLAWIRQPPGKGLEWIGSIFRSGSTYYNPSLESRVTISVDTSKNQFSLKLSSVTAADTAVYYCAIEGANFKDFGYVAFDIWGQGTTVTVSS
VL: EIVMTQSPATLSVSPGERATLSCRASQSVSSNLAWYQQKPGQAPRLLIYGASTRATGIPARFSGSGSGTEFTLTISSLQSEDFAVYYCQQSPPWPRTFGGGTKVEIK
For B4, the Polyspecificity Reagent (PSR) Score (0-1) [1] was 0 score (0-1).

B5: anti-TIGIT antibody clone 29494 (antibody, V domains shown)
VH: QVQLQESGPGLVKPSETLSLTCTVSGGSISSGSYYLAWIRQPPGKGLEWIGSIFRSGSTYYNPSLESRVTISVDTSKNQFSLKLSSVTAADTAVYYCAIEGANFKDFGYVAFDIWGQGTMVTVSS
VL: EIVMTQSPATLSVSPGERATLSCRASQSVSSNLAWYQQKPGQAPRLLIYGASTRATGIPARFSGSGSGTEFTLTISSLQSEDFAVYYCQQSPPWPRTFGGGTKVEIK
B5 was tested, and the Polyspecificity Reagent (PSR) Score (0-1) [1] was 0 score (0-1).

B6: anti-TIGIT antibody clone 26493 (antibody, V domains shown)
VH: EVQLVESGGGLVQPGRSLRLSCAASGFTFGDYAMHWVRQAPGKGLEWVSGITWNSGSIGYADSVKGRFTISRDNAKNSLYLQMNSLRAEDTALYYCAKPVPKSRGLDVWGQGTMVTVSS
VL: DIQLTQSPSSVSASVGDRVTITCRASQGISSWLAWYQQKPGKAPKLLIYGASSLQSGVPSRFSGSGSGTDFTLTISSLQPEDFATYYCQQAFYLPWTFGGGTKVEIK
For B6, the Polyspecificity Reagent (PSR) Score (0-1) [1] was 0 score (0-1).

B7: anti-TIGIT antibody clone 29520 (antibody, V domains shown)
VH: QVQLVESGGGLVQPGRSLRLSCAASGFTFRDYAMHWVRQAPGKGLEWVSGITWNSGLIGYADSVKGRFTISRDNAKNSLYLQMNSLRAEDTALYYCAKPVPRLRGLDVWGQGTMVTVSS
VL: DIQLTQSPSSVSASVGDRVTITCRASQGISSWLAWYQQKPGKAPKLLIYGASSLQSGVPSRFSGSGSGTDFTLTISSLQPEDFATYYCQQAFYLPWTFGGGTKVEIK
In the case of B7, the Polyspecificity Reagent (PSR) Score (0-1) [1] is reported as 0.32 score (0-1).

B8: anti-TIGIT antibody clone 29527 (antibody, V domains shown)
VH: QVQLVESGGGVVQPGRSLRLSCAASGFTFSSSYMHWVRQAPGKGLEWVAVIGADGSNKYYADSVEGRFTISRDNSKNTLYLQMNSLRAEDTALYYCAKPVPRRRGLDVWGQGTMVTVSS
VL: DIQLTQSPSSVSASVGDRVTITCRASQGISSWLAWYQQKPGKAPKLLIYGASSLQSGVPSRFSGSGSGTDFTLTISSLQPEDFATYYCQQAFYLPWTFGGGTKVEIK
In the case of B8, the Polyspecificity Reagent (PSR) Score (0-1) [1] is reported as 0.12 score (0-1).

B9: anti-TIGIT antibody clone 29523 (antibody, V domains shown)
VH: EVQLVESGGGVVQPGRSLRLSCAASGFTFGSYYMHWVRQAPGKGLEWVAVIWPDGSNKLYADSVKGRFTISRDNSKNTLYLQMNSLRAEDTALYYCAKPVPKSRALDVWGQGTMVTVSS
VL: DIQLTQSPSSVSASVGDRVTITCRASQGISSWLAWYQQKPGKAPKLLIYGASSLQSGVPSRFSGSGSGTDFTLTISSLQPEDFATYYCQQAFYLPWTFGGGTKVEIK
With B9 the Polyspecificity Reagent (PSR) Score (0-1) [1] was 0.12 score (0-1).

B10: anti-TIGIT antibody 313M32 (antibody, V domains shown)
VH: QVQLQESGPGLVKPSETLSLTCAVSGYSITSDYAWNWIRQPPGKGLEWIGYISYSGSTSYNPSLRSRVTISRDTSKNQFFLKLSSVTAADTAVYYCARRQVGLGFAYWGQGTLVTVSS
VL: DIQMTQSPSSLSASVGDRVTITCKASQDVSTAVAWYQQKPGKAPKLLIYSASYRYTGVPSRFSGSGSGTDFTFTISSLQPEDIATYYCQQHYSTPWTFGGGTKVEIK
With B10 the EC50 [2] was 0.44 nM, the “Fold change of EC50 over EC50 of best clone (31282_wu)” value [2] was 4.2 fold and the Kd [3] was 10.1 nM. For the same binder, the “Fold change of IC50 over IC50 of best clone (31282_up)” value [4] was 16.7 fold, the IC50 [4] was 0.65 nM and the EC50 [5] was 1 nM. The “Fold change of EC50 over EC50 of best clone (31282)” value [5] was 8.3 fold, the EC50 [6] was 0.445 nM and the EC50 [7] was 1.45 nM. The “Fold change of EC50 over EC50 of best clone (31282_wu)” value [7] was 7.5 fold.

B11: anti-TIGIT antibody clone 29513 (antibody, V domains shown)
VH: QVQLVQSGAEVKKPGSSVKVSCKASGGTFQNYAISWVRQAPGQGLEWMGVIVPIFGTANYAQKFQGRVTVTADESTSTAYMELSSLRSEDTAVYYCARLHLGQKAYYGMDVWGQGTTVTVSS
VL: DIQMTQSPSSLSASVGDRVTITCRASQSISSYLNWYQQKPGKAPKLLIYAASSLQSGVPSRFSGSGSGTDFTLTISSLQPEDFATYYCQQRYVFPPTFGGGTKVEIK
For B11, the Polyspecificity Reagent (PSR) Score (0-1) [1] was 0.01 score (0-1).
